Laboratory results reported in US20190233495A1 (Sanofi, published 2019).
Non-standard residues stand in square brackets, D forms with d. Nle = CCCC[C@H](N)C(=O)O; Aib = CC(C)(N)C(=O)O

T1: RXFP1 receptor (UniProt Q9HBX9 1-757, limits assumed)
T1 sequence (looked up): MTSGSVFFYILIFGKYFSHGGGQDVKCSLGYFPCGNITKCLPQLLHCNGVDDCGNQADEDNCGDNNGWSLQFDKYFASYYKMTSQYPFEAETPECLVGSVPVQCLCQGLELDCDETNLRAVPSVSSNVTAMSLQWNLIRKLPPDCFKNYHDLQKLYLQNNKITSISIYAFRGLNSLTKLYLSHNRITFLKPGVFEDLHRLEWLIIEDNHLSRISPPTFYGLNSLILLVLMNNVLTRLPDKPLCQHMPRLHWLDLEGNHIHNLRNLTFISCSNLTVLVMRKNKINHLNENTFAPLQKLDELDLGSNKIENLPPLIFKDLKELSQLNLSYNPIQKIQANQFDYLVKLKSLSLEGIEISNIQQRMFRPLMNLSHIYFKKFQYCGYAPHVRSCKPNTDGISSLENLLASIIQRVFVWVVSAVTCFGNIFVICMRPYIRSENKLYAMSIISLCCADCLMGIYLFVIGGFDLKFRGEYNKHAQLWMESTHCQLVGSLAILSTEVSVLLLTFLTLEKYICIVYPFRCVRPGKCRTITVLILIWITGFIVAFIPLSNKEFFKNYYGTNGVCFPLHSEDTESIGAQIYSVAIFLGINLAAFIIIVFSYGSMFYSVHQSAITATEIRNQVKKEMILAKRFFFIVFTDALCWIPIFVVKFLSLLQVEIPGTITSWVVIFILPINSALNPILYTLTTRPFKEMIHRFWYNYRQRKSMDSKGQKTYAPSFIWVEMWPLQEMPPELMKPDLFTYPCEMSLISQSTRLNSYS


Target: T1, RXFP1 receptor
Experiment: cell-based or functional assay

| Binder | cAMP assay in OVCAR 5 cells EC50 | cAMP assay in OVCAR 5 cells Emax |
| --- | --- | --- |
| Ac-LEGREKVRAK(Ac)I[Aib][Aib]EG[Nle]STWS[Aib]RKK(Ac)-NH2 (SMILES CCCC[C@H](NC(=O)CNC(=O)[C@H](CCC(=O)O)NC(=O)C(C)(C)NC(=O)C(C)(C)NC(=O)[C@@H](NC(=O)[C@H](CCCCNC(C)=O)NC(=O)[C@H](C)NC(=O)[C@H](CCCNC(=N)N)NC(=O)[C@@H](NC(=O)[C@H](CCCCN)NC(=O)[C@H](CCC(=O)O)NC(=O)[C@H](CCCNC(=N)N)NC(=O)CNC(=O)[C@H](CCC(=O)O)NC(=O)[C@H](CC(C)C)NC(C)=O)C(C)C)[C@@H](C)CC)C(=O)N[C@@H](CO)C(=O)N[C@H](C(=O)N[C@@H](Cc1c[nH]c2ccccc12)C(=O)N[C@@H](CO)C(=O)NC(C)(C)C(=O)N[C@@H](CCCNC(=N)N)C(=O)N[C@@H](CCCCN)C(=O)N[C@@H](CCCCNC(C)=O)C(N)=O)[C@@H](C)O) [SEQ ID NO: 5] | 7.4 nM | 98% |
| Ac-LEGREKVRAQI[Aib][Aib]EG[Nle]STFS[Aib]RKK-NH2 (SMILES CCCC[C@H](NC(=O)CNC(=O)[C@H](CCC(=O)O)NC(=O)C(C)(C)NC(=O)C(C)(C)NC(=O)[C@@H](NC(=O)[C@H](CCC(N)=O)NC(=O)[C@H](C)NC(=O)[C@H](CCCNC(=N)N)NC(=O)[C@@H](NC(=O)[C@H](CCCCN)NC(=O)[C@H](CCC(=O)O)NC(=O)[C@H](CCCNC(=N)N)NC(=O)CNC(=O)[C@H](CCC(=O)O)NC(=O)[C@H](CC(C)C)NC(C)=O)C(C)C)[C@@H](C)CC)C(=O)N[C@@H](CO)C(=O)N[C@H](C(=O)N[C@@H](Cc1ccccc1)C(=O)N[C@@H](CO)C(=O)NC(C)(C)C(=O)N[C@@H](CCCNC(=N)N)C(=O)N[C@@H](CCCCN)C(=O)N[C@@H](CCCCN)C(N)=O)[C@@H](C)O) [SEQ ID NO: 51] | 18.6 nM | 98% |
| Ac-LEGREKVRAQI[Aib][Aib]EG[Nle]STWS[Aib]RRR-NH2 (SMILES CCCC[C@H](NC(=O)CNC(=O)[C@H](CCC(=O)O)NC(=O)C(C)(C)NC(=O)C(C)(C)NC(=O)[C@@H](NC(=O)[C@H](CCC(N)=O)NC(=O)[C@H](C)NC(=O)[C@H](CCCNC(=N)N)NC(=O)[C@@H](NC(=O)[C@H](CCCCN)NC(=O)[C@H](CCC(=O)O)NC(=O)[C@H](CCCNC(=N)N)NC(=O)CNC(=O)[C@H](CCC(=O)O)NC(=O)[C@H](CC(C)C)NC(C)=O)C(C)C)[C@@H](C)CC)C(=O)N[C@@H](CO)C(=O)N[C@H](C(=O)N[C@@H](Cc1c[nH]c2ccccc12)C(=O)N[C@@H](CO)C(=O)NC(C)(C)C(=O)N[C@@H](CCCNC(=N)N)C(=O)N[C@@H](CCCNC(=N)N)C(=O)N[C@@H](CCCNC(=N)N)C(N)=O)[C@@H](C)O) [SEQ ID NO: 50] | 4.42 nM | 90% |
| H-LEGREKVRAQI[Aib]IEGMSKWSKRKK-NH2 (SMILES CC[C@H](C)[C@H](NC(=O)[C@H](CCC(N)=O)NC(=O)[C@H](C)NC(=O)[C@H](CCCNC(=N)N)NC(=O)[C@@H](NC(=O)[C@H](CCCCN)NC(=O)[C@H](CCC(=O)O)NC(=O)[C@H](CCCNC(=N)N)NC(=O)CNC(=O)[C@H](CCC(=O)O)NC(=O)[C@@H](N)CC(C)C)C(C)C)C(=O)NC(C)(C)C(=O)N[C@H](C(=O)N[C@@H](CCC(=O)O)C(=O)NCC(=O)N[C@@H](CCSC)C(=O)N[C@@H](CO)C(=O)N[C@@H](CCCCN)C(=O)N[C@@H](Cc1c[nH]c2ccccc12)C(=O)N[C@@H](CO)C(=O)N[C@@H](CCCCN)C(=O)N[C@@H](CCCNC(=N)N)C(=O)N[C@@H](CCCCN)C(=O)N[C@@H](CCCCN)C(N)=O)[C@@H](C)CC) [SEQ ID NO: 6] | 46.3 nM | 97% |
| Ac-LEGREKVRAQI[Aib]IEGMSKWSKRKK-NH2 (SMILES CC[C@H](C)[C@H](NC(=O)[C@H](CCC(N)=O)NC(=O)[C@H](C)NC(=O)[C@H](CCCNC(=N)N)NC(=O)[C@@H](NC(=O)[C@H](CCCCN)NC(=O)[C@H](CCC(=O)O)NC(=O)[C@H](CCCNC(=N)N)NC(=O)CNC(=O)[C@H](CCC(=O)O)NC(=O)[C@H](CC(C)C)NC(C)=O)C(C)C)C(=O)NC(C)(C)C(=O)N[C@H](C(=O)N[C@@H](CCC(=O)O)C(=O)NCC(=O)N[C@@H](CCSC)C(=O)N[C@@H](CO)C(=O)N[C@@H](CCCCN)C(=O)N[C@@H](Cc1c[nH]c2ccccc12)C(=O)N[C@@H](CO)C(=O)N[C@@H](CCCCN)C(=O)N[C@@H](CCCNC(=N)N)C(=O)N[C@@H](CCCCN)C(=O)N[C@@H](CCCCN)C(N)=O)[C@@H](C)CC) [SEQ ID NO: 1] | 42.9 nM | 91% |

The remaining lines, values ahead:

| cAMP assay in OVCAR 5 cells EC50 | cAMP assay in OVCAR 5 cells Emax | Binder |
| --- | --- | --- |
| 76.2 nM | 75% | Ac-LEGREKVRAQI[Aib][Aib]EG[Nle]STYS[Aib]RKK-NH2 (SMILES CCCC[C@H](NC(=O)CNC(=O)[C@H](CCC(=O)O)NC(=O)C(C)(C)NC(=O)C(C)(C)NC(=O)[C@@H](NC(=O)[C@H](CCC(N)=O)NC(=O)[C@H](C)NC(=O)[C@H](CCCNC(=N)N)NC(=O)[C@@H](NC(=O)[C@H](CCCCN)NC(=O)[C@H](CCC(=O)O)NC(=O)[C@H](CCCNC(=N)N)NC(=O)CNC(=O)[C@H](CCC(=O)O)NC(=O)[C@H](CC(C)C)NC(C)=O)C(C)C)[C@@H](C)CC)C(=O)N[C@@H](CO)C(=O)N[C@H](C(=O)N[C@@H](Cc1ccc(O)cc1)C(=O)N[C@@H](CO)C(=O)NC(C)(C)C(=O)N[C@@H](CCCNC(=N)N)C(=O)N[C@@H](CCCCN)C(=O)N[C@@H](CCCCN)C(N)=O)[C@@H](C)O) [SEQ ID NO: 53] |
| 4.9 nM | 88% | Ac-LEGREKVRAQI[Aib][Aib]EG[Nle]SRWS[Aib]RRR-NH2 (SMILES CCCC[C@H](NC(=O)CNC(=O)[C@H](CCC(=O)O)NC(=O)C(C)(C)NC(=O)C(C)(C)NC(=O)[C@@H](NC(=O)[C@H](CCC(N)=O)NC(=O)[C@H](C)NC(=O)[C@H](CCCNC(=N)N)NC(=O)[C@@H](NC(=O)[C@H](CCCCN)NC(=O)[C@H](CCC(=O)O)NC(=O)[C@H](CCCNC(=N)N)NC(=O)CNC(=O)[C@H](CCC(=O)O)NC(=O)[C@H](CC(C)C)NC(C)=O)C(C)C)[C@@H](C)CC)C(=O)N[C@@H](CO)C(=O)N[C@@H](CCCNC(=N)N)C(=O)N[C@@H](Cc1c[nH]c2ccccc12)C(=O)N[C@@H](CO)C(=O)NC(C)(C)C(=O)N[C@@H](CCCNC(=N)N)C(=O)N[C@@H](CCCNC(=N)N)C(=O)N[C@@H](CCCNC(=N)N)C(N)=O) [SEQ ID NO: 55] |
| 22 nM |  | Ac-LEGREKVRAQI[Aib][Aib]EGQSTWS[Aib]RKK-NH2 (SMILES CC[C@H](C)[C@H](NC(=O)[C@H](CCC(N)=O)NC(=O)[C@H](C)NC(=O)[C@H](CCCNC(=N)N)NC(=O)[C@@H](NC(=O)[C@H](CCCCN)NC(=O)[C@H](CCC(=O)O)NC(=O)[C@H](CCCNC(=N)N)NC(=O)CNC(=O)[C@H](CCC(=O)O)NC(=O)[C@H](CC(C)C)NC(C)=O)C(C)C)C(=O)NC(C)(C)C(=O)NC(C)(C)C(=O)N[C@@H](CCC(=O)O)C(=O)NCC(=O)N[C@@H](CCC(N)=O)C(=O)N[C@@H](CO)C(=O)N[C@H](C(=O)N[C@@H](Cc1c[nH]c2ccccc12)C(=O)N[C@@H](CO)C(=O)NC(C)(C)C(=O)N[C@@H](CCCNC(=N)N)C(=O)N[C@@H](CCCCN)C(=O)N[C@@H](CCCCN)C(N)=O)[C@@H](C)O) [SEQ ID NO: 54] |
| 9.15 nM | 94% | Ac-LEGREKVRAQI[Aib][Aib]EG[Nle]SQWS[Aib]RRR-NH2 (SMILES CCCC[C@H](NC(=O)CNC(=O)[C@H](CCC(=O)O)NC(=O)C(C)(C)NC(=O)C(C)(C)NC(=O)[C@@H](NC(=O)[C@H](CCC(N)=O)NC(=O)[C@H](C)NC(=O)[C@H](CCCNC(=N)N)NC(=O)[C@@H](NC(=O)[C@H](CCCCN)NC(=O)[C@H](CCC(=O)O)NC(=O)[C@H](CCCNC(=N)N)NC(=O)CNC(=O)[C@H](CCC(=O)O)NC(=O)[C@H](CC(C)C)NC(C)=O)C(C)C)[C@@H](C)CC)C(=O)N[C@@H](CO)C(=O)N[C@@H](CCC(N)=O)C(=O)N[C@@H](Cc1c[nH]c2ccccc12)C(=O)N[C@@H](CO)C(=O)NC(C)(C)C(=O)N[C@@H](CCCNC(=N)N)C(=O)N[C@@H](CCCNC(=N)N)C(=O)N[C@@H](CCCNC(=N)N)C(N)=O) [SEQ ID NO: 52] |
